US10189887B2, “Polypeptides and uses thereof for reducing CD95-mediated cell motility” (INSERM (INSTITUT NATIONAL DE LA SANTÉ ET DE LA RECHERCHE …, priority 2014, dated 2019)

Key:
[1] = test system: CD95-mediated Ca^2+ response; test: Calcium response to cl-CD95L in Jurkat cells (Fura2/FuraPE3 video imaging); format: cell-based; conditions: 100 ng/ml cl-CD95L
Procedure: (§1) Cells were loaded with Fura2-AM (1 μM) at resting temperature for 30 min in Hank's Balanced Salt Solution (HBSS). After washing with HBSS, the cells were incubated for 15 min in the absence of Fura2-AM to complete de-esterification of the dye. Cells were placed in a thermostated chamber (37° C.) of an inverted epifluorescence microscope (Olympus IX70) equipped with a ×40, UApo/340-1.15 W water-immersion objective (Olympus), and fluorescence micrograph images were captured at 510 nm and at 12-bit resolution by a fast-scan camera (CoolSNAP fx Monochrome, Photometrics). To minimize UV light exposure, 4×4 binning function was used. Fura2-AM was alternately excited at 340 and 380 nm, and ratios of the resulting images (excitations at 340 and 380 nm and emission filter at 520 nm) were produced at constant intervals (5 s or 10 s according to the stimulus). […] Fluorescent images were pseudocolored using the IMD display mode in MetaFluor and assembled without further manipulation in Photoshop (Adobe). Raw data were acquired with MetaFluor and graphed in Origin (OriginLab). [Ca^2+]i was calculated using the following equation: [Ca^2+]i=Kd(R−Rmin)/(R−Rmax)×Sf2/Sf1, where Kd is the Fura2-AM dissociation constant at the two excitation wavelengths (F340/F380); Rmin is the fluorescence ratio in the presence of minimal calcium, obtained by chelating Ca^2+ with 10 mM EGTA; Rmax is the fluorescence ratio in the presence of excess calcium, obtained by treating cells with 1 μM ionomycin; Sf2 is the fluorescence of the Ca^2+-free form; and Sf1 is the fluorescence of the Ca^2+-bound form of Fura2-AM at excitation wavelengths of 380 and 340 nm, respectively. In some experiments cells were placed in a Ca^2+-free medium consisting of the HBSS described above in which CaCl2 was omitted and 100 μM EGTA was added in order to chelate residual Ca^2+ ions. This medium was added to the cells just before recording to avoid leak of the intracellular calcium stores.
T cells were loaded with Fura-PE3-AM (1 μM) at room temperature for 30 min in Hank's Balanced Salt Solution (HBSS). After washing, the cells were incubated for 15 min in the absence of Fura-PE3-AM to complete de-esterification of the dye. Cells were placed in the temperature controlled chamber (37° C.) of an inverted epifluorescence microscope (Olympus IX70) equipped with an ×40 UApo/340-1.15 W water-immersion objective (Olympus), and fluorescence micrograph images were captured at 510 nm and 12-bit resolution by a fast-scan camera (CoolSNAP fx Monochrome, Photometrics). To minimize UV light exposure, a 4×4 binning function was used. Fura-PE3 was alternately excited at 340 and 380 nm, and the ratios of the resulting images (emission filter at 520 nm) were produced at constant intervals (10 seconds). The Fura-PE3 ratio (Fratio 340/380) images were analyzed offline with Universal Imaging software, including Metafluor and Metamorph. Fratio reflects the intracellular Ca^2+ concentration changes. Each experiment was repeated 3 times, and the average of more than 20 single-cell traces was analyzed.

[2] = test system: CD95-mediated Ca^2+ response; test: Calcium response to cl-CD95L in activated PBL; format: cell-based, human; conditions: human PBLs pretreated 1 μM, 1 h (positive control); 100 ng/ml cl-CD95L
Procedure: as §1
All cells were purchased from ATCC (Molsheim Cedex, France). T leukemic cell lines CEM, H9 and Jurkat were cultured in RPMI supplemented with 8% heat-inactivated FCS (v/v) and 2 mM L-glutamine at 37° C. in a 5% CO2 incubator. CEM-IRC cell expressing a low amount of plasma membrane CD95 was described in (Beneteau et al., 2007; Beneteau et al., 2008). […]
T cells were loaded with Fura-PE3-AM (1 μM) at room temperature for 30 min in Hank's Balanced Salt Solution (HBSS). […] Cells were placed in the temperature controlled chamber (37° C.) of an inverted epifluorescence microscope (Olympus IX70) equipped with an ×40 UApo/340-1.15 W water-immersion objective (Olympus), and fluorescence micrograph images were captured at 510 nm and 12-bit resolution by a fast-scan camera (CoolSNAP fx Monochrome, Photometrics). […]

[3] = test system: Th17 cells; test: Endothelial transmigration of CD4 T-cell subsets (Th17, Th1, Treg), Boyden chamber; format: cell-based, human
Procedure: Animal experiments were subject to ethical review by the University of Nottingham were appropriate and conducted using PPL 40/3412 in accordance with the UK Home Office guidance and under ASPA (1986). For the generation of murine T-cell subsets, spleens were removed from C57Bl/6 mice and single cell suspensions prepared. CD4^+CD62L^+ naïve cells were isolated using Miltenyi Biotec microbeads. Naïve human CD4^+ T-cells were prepared using the Miltenyi Biotec naïve CD4^+ T-cell isolation kit II, which are sorted produced a 99% pure population of CD4^+CD45RA^+ cells. Purified cells were cultured in complete IMDM media all with α-CD3 (1 μg/ml), α-CD28 (2 μg/ml), and as follows; Th1 cells IL-12 (10 ng/ml) with α-IL-4 (10 μg/ml), Th2 cells IL-4 (10 ng/ml) and α-IFN-γ (10 μg/ml), Th17 cells Il-6 (10 ng/ml), TGF-β1 (2 ng/ml), α-IFN-γ (10 μg/ml) with α-IL-4 (10 μg/ml), and Tregs IL-2 (10 ng/ml) TGF-β1 (5 ng/ml), α-IFN-γ (10 μg/ml) and α-IL-4 (10 μg/ml). Cells were converted to T-cell subsets over five days as outlined above. All cytokines were supplied by PeproTech (London, UK). Mouse CD3 (clone 2C11); human CD3 (UCHT1); mouse CD28 (37.51); human CD28 (CD28.2); mouse IL-4 (11B11); human IL-4 (MP4-25D2); mouse IFN-γ (XMG1.2); human IFN-γ B27 came from BD Pharmigen.
After hydration of the Boyden chamber membranes containing 3 μm pore size membranes (Millipore, Molsheim, France), activated T-lymphocytes (10^6) were added to the top chamber on a confluent monolayer of HUVEC in a low serum (1%)-containing medium. […] In experiments using human sera, 500 μl of serum from either healthy donors or SLE patients was added in the lower reservoir. Cells were cultured for 24 h at 37° C. in a 5% CO2 humidified incubator. Transmigrated cells were counted in the lower reservoir by flow cytometry using a standard of 2.5×10^4 fluorescent beads (Flow-count, Beckman Coulter).
Blocking antibodies were used against E-selectin and ICAM-1 in the CHEMICON® endothelial cell adhesion assay (Millipore). Briefly, after activation of the endothelial cell layer with TNF-α, anti-mouse Ig controls, anti-E-selectin or anti-ICAM-1 were added at final concentrations of 10 μg/ml. Thereafter calcein-AM-stained T-cell subsets were incubated for 24 hours and unbound cells are washed. Cells attached to the endothelium were assessed using fluorescence plate reader.

[4] = test system: Th17 cell accumulation; test: In vivo administration of cl-CD95L: cell accumulation in peritoneal cavity and spleen; parameters: species or system C57BL/6 mice; conditions: 24 hours
Procedure: Female C57BL/6 mice (Harlan UK) aged between 8-10 weeks were placed in groups of 6 and administered IP. Twenty-four hours following injection, mice were sacrificed and periteonial cavities were washed with 5 ml of PBS/2% FCS, blood smears were prepared, and spleens were collected. Blood smears and cytospins of periteonal cells (PECs) were stained with Giemsa and differential counts performed. Single cell suspensions of spleens and PECs were prepared, cell counts performed, CD4+CD62− T-cells were isolated with Miltenyi microbeads and number of cells determined by trypan blue exclusion. For experiments where animals received TAT-mCID or control peptides, 800 μg (40 mg/kg) was injected IP 2 hrs prior to administration of cl-CD95L. All mouse experiments were performed under ethical approval from the University of Nottingham local animal ethics committee and adhering to UK Home Office guidelines under the Project License 40/3412.
Single cell suspensions of spleens and PECs were prepared as described above. RNA was extracted from CD4 T-cells using phenol/chloroform. cDNA was prepared using the Promega GO-Script Reverse Transcription Kit and used in Real-Time PCR. Briefly, cDNA samples were subject to Taqman assay performed on a Roche Lightcycler. Results are reported as expression levels were calculated using the Δct method relative to HPRT.

## C1CCC[C@H]2CCCN3CC[C@@H](CCCCCC[C@@H]4CCCN5CC[C@@H](CC1)O[C@@H]45)O[C@@H]23 [Xestospongin C, reference compound]
[1]; Jurkat cells pretreated 2 μM, 20 minutes
  calcium response to cl-CD95L: completely blocked the initial component of the calcium response
[2]
  CD95-mediated Ca^2+ response: abrogated the CD95-mediated Ca^2+ response

## Ryanodine
[1]; Jurkat cells pretreated 20 minutes with 10 μM Ryanodine, alone or with Xestospongin C
  calcium response to cl-CD95L: did not reduce the initial peak but blocked the plateau phase

B1: cl-CD95L: recombinant homotrimeric metalloprotease-cleaved CD95L from supernatant of transfected HEK 293 cells (protein)
chain: QIGHPSPPPEKKELRKVAHLTGKSNSRSMPLEWEDTYGIVLLSGVKYKKGGLVINETGLYFVYSKVYFRGQSCNNLPLSHKVYMRNSKYPQDLVMMEGKMMSYCTTGQMWARSSYLGAVFNLTSADHLYVNVSELSLVNFEESQTFFGLYKL
[3]; Th1 and Th17 versus Th0 and Th2, cl-CD95L 200 ng/ml
  transmigration of CD4 T-cell subsets: more efficient to promote the transmigration of Th1 and Th17 lymphocytes
[3]; human Th17 cells, presence or absence of cl-CD95L
  endothelial transmigration of Th17 T cells: enhanced endothelial transmigration of Th17 T cells
[3]; human regulatory T-cells, presence or absence of cl-CD95L
  endothelial transmigration of Treg cells: failed to induce significant Treg transmigration
[4]; single IP dose cl-CD95L (200 ng) versus vehicle
  total cell counts from the PEC and spleen: significant increase in the number of lymphocytes
[4]; single IP dose cl-CD95L (200 ng)
  Th17 lineage markers (IL-17, IL-23R, CCR6) in recruited activated CD4+ T cells, Q-PCR: induced the recruitment of Th17 cells

B2: CD95-Fc: decoy receptor for CD95L (protein)
chain: QVTDINSKGLELRKTVTTVETQNLEGLHHDGQFCHKPCPPGERKARDCTVNGDEPDCVPCQEGKEYTDKAHFSSKCRRCRLCDEGHGLEVEINCTRTQNTKCRCKPNFFCNSTVCEHCDPCTKCEHGIIKECTLTSNTKCKEEGSRSN
modifications: left off: a dimerising Fc or GST
notes: decoy receptor for CD95L
[3]; pre-incubation of SLE sera with decoy receptor, increasing concentrations
  Th17 cell migration induced by SLE sera: prevented Th17 cell migration in a dose-dependent manner
